Reference: patent publication US6723841
Bridge positions count the residues as written; N and C are the ends. Ends that are not written are not given here.

Assays:
Assay in all cases: cell-based or functional assay
[1] = molecular target: T1, human CRF2α receptor (human) (UniProt Q13324)
T1 sequence: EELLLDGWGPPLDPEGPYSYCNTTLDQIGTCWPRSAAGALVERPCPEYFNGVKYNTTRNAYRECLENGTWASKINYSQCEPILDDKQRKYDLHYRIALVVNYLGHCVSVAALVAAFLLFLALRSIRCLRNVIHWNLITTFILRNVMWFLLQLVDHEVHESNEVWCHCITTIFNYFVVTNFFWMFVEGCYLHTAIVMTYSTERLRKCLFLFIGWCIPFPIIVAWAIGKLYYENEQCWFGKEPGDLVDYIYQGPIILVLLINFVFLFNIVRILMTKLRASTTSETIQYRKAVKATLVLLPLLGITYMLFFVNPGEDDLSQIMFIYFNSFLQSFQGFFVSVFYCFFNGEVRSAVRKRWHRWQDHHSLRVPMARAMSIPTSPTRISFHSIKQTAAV

[2] = molecular target: human CRF1 receptor (human) (UniProt P34998)
[3] = molecular target: rat CRF2β receptor (rat)

Sequence of human CRF1 receptor (human) (P34998 24-415): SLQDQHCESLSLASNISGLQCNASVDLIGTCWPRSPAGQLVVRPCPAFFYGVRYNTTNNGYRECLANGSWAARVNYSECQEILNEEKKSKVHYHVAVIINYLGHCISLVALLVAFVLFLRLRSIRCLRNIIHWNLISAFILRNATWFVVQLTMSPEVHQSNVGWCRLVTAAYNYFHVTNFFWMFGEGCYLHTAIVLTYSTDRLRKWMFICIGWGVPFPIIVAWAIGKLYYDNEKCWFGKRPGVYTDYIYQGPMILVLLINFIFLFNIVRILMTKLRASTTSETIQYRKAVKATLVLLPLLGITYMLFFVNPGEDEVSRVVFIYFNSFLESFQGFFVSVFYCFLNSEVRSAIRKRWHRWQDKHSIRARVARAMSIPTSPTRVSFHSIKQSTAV

Binder | EC50 of adenylate cyclase stimulation (cAMP) [1] [µM] | EC50 of adenylate cyclase stimulation (cAMP) [2] [µM] | EC50 of adenylate cyclase stimulation (cAMP) [3] [µM]
SQEPPISLDLTFHLLREVLEMTKADQLAQQAHSNRKLLDIA (peptide, UniProt P01142 148-188, looked up, ends and bridges not checked) [ovine CRF] | 0.08 | 0.01 | 
SQEPPISLDLTFHLLREVLEMTKADQLAQQAHNNRKLLDIA (peptide, UniProt Q95MI6 148-188, looked up) [bovine CRF] | 0.1 | 0.03 | 
SQEPPISLDLTFHLLREVLEMTKADQLAQQAHNNRKLLDIA-OH (peptide, UniProt Q95MI6 148-188, looked up) [deamidated bovine CRF] | > 1 | 1 | 
SEEPPISLDLTFHLLREVLEMARAEQLAQQAHSNRKLMEII (peptide, UniProt P06850 154-194, looked up) [rat/human CRF] | 0.02 | 0.004 | 0.001
ISLDLTFHLLREVLEMARAEQLAQQAHS (peptide, UniProt P06850 159-186, looked up) [r/hCRF(6-33)] | > 1 | > 1 | 
FHLLREVLEMARAEQLAQQAHSNRKLMEII (peptide, UniProt P06850 165-194, looked up, d-Phe (position not given)) [d-Phe r/hCRF(12-41)] | > 1 | > 1 | 
HSDAVFTDNYTRLRKQMAVKKYLNSILN (peptide, UniProt P01282 125-152, looked up, species assumed, ends and bridges not checked) [VIP] | > 1 | > 1 | 
QGPPISIDLSLELLRKMIEIEKQEKEKQQAANNRLLLDTI (peptide, UniProt P01144 1-40, looked up) [Sauvagine] | 0.0005 | 0.003 | 0.0004
YADAIFTNSYRKVLGQLSARKLLQDIMSRQQGESNQERGARARL (peptide, UniProt P01286 32-75, looked up, ends and bridges not checked) [hGRF] | > 1 | > 1 | 
CYFQNCPRG-NH2 (peptide, UniProt P01185 20-28, looked up, species assumed, disulfide 1-6; ends not checked) [AVP] | > 1 | > 1 | 
